Results taken from article PMC314469, “Protein Interaction Networks by Proteome Peptide Scanning” (PLoS Biology, 2004).

T1: amphyphisin SH3 (AMPH_HUMAN), P49418
T1 chain: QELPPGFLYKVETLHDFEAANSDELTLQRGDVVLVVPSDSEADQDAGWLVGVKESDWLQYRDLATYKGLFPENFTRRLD


Tests used:
[1] = target: endophilin SH3 (SH3G2_HUMAN), Q99962; assay: SPOT array
[2] = target: T1, amphyphisin SH3 (AMPH_HUMAN), P49418; assay: SPOT array

Row | Binder | normalised SPOT signal, Boehringer light units (BLU); mean over the file's lines of this peptide [1] | normalised SPOT signal, Boehringer light units (BLU); mean over the file's lines of this peptide [2]
1 | DTKALRRPKSAELH [P07949 469-482] | 63 | 25.9
2 | EAQFFLRPLRSYGD [P78357 768-781] | 104 | 3170
3 | DVVPPIKPPKEIED [O14967 255-269] | 54.5 | 43.9
4 | DPNTFKRPQTPPKI [Q9Y4E3 337-350] | 39.4 | 27.3
5 | AEILPRRPPTPEAQ [Q9BTK6 128-142] | 32.7 | 57.4
6 | EALKLRRPPDASGA [P24530 73-86] | 42.8 | 35.9
7 | DVPAFVRPARVEPT [Q9C0A3 802-815] | 72.7 | 4540
8 | DRPKPPRPPTGRPS [P51512 320-334] | 7650 | 574
9 | DRWDPTRPPRATDT [O95180 738-751] | 62.2 | 360
10 | DTYRPKRPTTLNLF [Q9UQF2 154-167] | 1540 | 75.1
11 | DTPPPSRPEKKKAD [P12111 1626-1639] | 101 | 78.7
12 | DRPIIDRPIRGRGG [Q9Y367 154-167] | 192 | 325
13 | DPNAPKRPPSGFFL [O15347 88-101] | 5320 | 20
14 | DPQAPRRPPSSFLL [Q8WW32 89-102] | 1200 | 108
15 | AEMTFRRPAQAFPV [P07949 672-685] | 116 | 26.9
16 | DPNFPNKPPLTFDI [Q9H314 810-824] | 47.9 | 45.5
17 | DPRRPKRPRTILTT [O60663 192-205] | 948 | 183
18 | EAGSPRRPRRQRSD [Q15015 1069-1082] | 377 | 8310
19 | DPNAPKRPPLAFFL [P23497 765-778] | 8420 | 32
20 | DPNAPKRPMSAYML [Q08945 543-556] | 82.6 | 41.4
21 | EALEIPRPLRALDQ [Q9HCK4 1228-1241] | 0 | 0

Row | Binder | normalised SPOT signal, Boehringer light units (BLU); mean over the file's lines of this peptide [1] | normalised SPOT signal, Boehringer light units (BLU); mean over the file's lines of this peptide [2]
22 | DVTDPKRPLSFGVT [Q9P2C6 232-245] | 37.5 | 1.7
23 | DPPGPPRPPKEPGP [Q9NR59 1285-1299] | 468 | 73.4
24 | DVLSPLRPSRRHFP [Q12756 1091-1104] | 2630 | 9010
25 | AEGPPKRPGGSSPL [P48634 1665-1678] | 291 | 50.3
26 | DQIPPNKPPWFDQP [O00302 379-393] | 46.9 | 43.4
27 | DPNAPKRPLSGFFL [Q9UJ13 78-91] | 1710 | 40.7
28 | DPRTPRRPRSARAG [Q9H901 24-37] | 203 | 59.5
29 | DSPSFSRPSKYSPG [O14905 71-84] | 57.1 | 30.7
30 | DTLNIRRPLVKMVY [Q9P0U0 373-386] | 60.9 | 24.3
31 | DSPLPRRPAFSGTS [Q9HBB0 94-107] | 971 | 11.5
32 | DTALLPRPERRSSL [Q9Y2E3 518-531] | 65.4 | 112
33 | DVIIPAKPPVSFFS [Q96K45 88-102] | 53.1 | 15.7
34 | DTTSPSRPPGGPII [Q9Y2E5 978-992] | 72.7 | 36.5
35 | DPNAPKRPPSAFFL [P09429 90-103] | 3610 | 39.5
36 | DSGQPRRPGQSPLS [O75111 1249-1262] | 80.5 | 20.2
37 | DRFPLKRPRYEDSD [O94913 808-821] | 144 | 129
38 | DPNPPKRPLIFDTN [O14802 1370-1383] | 33.1 | 20.6
39 | EADSIPRPYRSQQS [O15015 40-53] | 0 | 10.4
40 | AEERPRRPSQEQSA [Q9Y4D0 963-976] | 882 | 17.3
41 | DPSGLPRPQKIPIS [Q9H591 280-293] | 112 | 149
42 | DPSPPRRPQHNSSG [Q96LS7 199-212] | 238 | 45
